Results taken from US20220033460A1, “IDENTIFICATION AND USE OF T CELL EPITOPES IN DESIGNING DIAGNOSTIC AND THERAPEUTIC APPROACHES FOR COVID-19” (priority 2020, published 2022).

Experiments:
DRB1*07:01 = DRB1*07:01 (Homo sapiens, UniProt P01903+P01911, A100R/A102G/A103Q/D57E/D86V/E43K/F76Y/K127E/L162R/M171V/P40G/Q125H/Q99D/R33Q/R42Y/R54Q/S133A/S66F/T210M/V115G/Y107V/Y59L/Y89S); assay type: cell-based; settings: for MCR2 construct expression (presentation): 12mer peptides in DRB1*07:01-MCR2
[1] = tested on: TCRs from the BAL of COVID-19 patients; assay type: cell-based, human

Substance: S714-725(T716I): Spike 12mer peptide with T716I cloned into DRB1*07:01-MCR2
- MCR2 construct expression (presentation) (DRB1*07:01): expressed well

Substance: S714-725: Spike 12mer peptide cloned into DRB1*07:01-MCR2
- MCR2 construct expression (presentation) (DRB1*07:01): expressed well
- recognition by TCR007 (NFAT activation) [1]: not

Substance: S714-728 (T716I): Spike 15mer 714-728 with the T716I mutation of the B1.1.7 variant
- peptide presentation by DRB1*07:01 (FACS staining, MEDi-MA scores) (DRB1*07:01; mutated versus WT peptides): presented as well as the WT
- recognition by TCR007 (NFAT activation) [1]: not recognized
